T1: Full-length Cyno OX40 (cynomolgus monkey, UniProt P43489 29-277 (human entry))
T1 construct: on CHO-K1SV cells; also called OXF004; cynomolgus OX40
T1 chain: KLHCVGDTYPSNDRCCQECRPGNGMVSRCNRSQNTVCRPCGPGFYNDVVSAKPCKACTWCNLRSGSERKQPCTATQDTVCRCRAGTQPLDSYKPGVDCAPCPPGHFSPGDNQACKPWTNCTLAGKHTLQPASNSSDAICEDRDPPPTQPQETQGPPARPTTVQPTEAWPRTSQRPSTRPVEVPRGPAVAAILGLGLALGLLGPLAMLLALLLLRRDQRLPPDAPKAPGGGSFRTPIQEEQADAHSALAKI

T2: Cyno OX40-AFH (cynomolgus monkey)
T2 construct: entry includes the tags; also called OXF005; cyno OX40 ECD
T2 chain: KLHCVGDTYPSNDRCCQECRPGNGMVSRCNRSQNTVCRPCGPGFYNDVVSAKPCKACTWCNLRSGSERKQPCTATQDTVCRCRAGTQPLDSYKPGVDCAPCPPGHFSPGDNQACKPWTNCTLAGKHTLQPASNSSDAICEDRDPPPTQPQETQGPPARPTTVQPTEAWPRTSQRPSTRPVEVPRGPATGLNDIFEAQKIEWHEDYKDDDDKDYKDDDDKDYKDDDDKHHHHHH

T3: Fc gamma receptor RIIA R167 (human, UniProt P12318 36-218)
T3 construct: soluble SPR analyte
T3 sequence (looked up): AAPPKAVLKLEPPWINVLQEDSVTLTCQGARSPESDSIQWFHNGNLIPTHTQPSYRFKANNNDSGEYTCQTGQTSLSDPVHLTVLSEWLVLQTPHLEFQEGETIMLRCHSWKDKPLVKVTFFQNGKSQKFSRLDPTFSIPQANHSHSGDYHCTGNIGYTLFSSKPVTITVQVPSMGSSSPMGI

T4: Fc gamma receptor RIIB/C (human, UniProt P31994 46-217)
T4 construct: soluble SPR analyte
T4 sequence (looked up): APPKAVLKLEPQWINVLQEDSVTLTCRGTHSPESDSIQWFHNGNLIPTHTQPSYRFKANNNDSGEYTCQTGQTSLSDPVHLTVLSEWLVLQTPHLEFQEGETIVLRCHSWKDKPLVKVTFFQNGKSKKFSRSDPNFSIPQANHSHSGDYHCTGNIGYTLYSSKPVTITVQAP

T5: Fc gamma receptor RIIA H167 (human, UniProt P12318 36-218)
T5 construct: soluble SPR analyte
T5 sequence (looked up): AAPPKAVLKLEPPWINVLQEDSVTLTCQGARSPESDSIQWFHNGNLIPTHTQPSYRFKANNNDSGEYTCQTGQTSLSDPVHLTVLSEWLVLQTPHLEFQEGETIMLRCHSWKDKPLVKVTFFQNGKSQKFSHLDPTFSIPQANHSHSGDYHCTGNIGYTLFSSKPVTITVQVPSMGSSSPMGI

T6: Full-length Human OX40 (human, UniProt P43489 29-277)
T6 sequence: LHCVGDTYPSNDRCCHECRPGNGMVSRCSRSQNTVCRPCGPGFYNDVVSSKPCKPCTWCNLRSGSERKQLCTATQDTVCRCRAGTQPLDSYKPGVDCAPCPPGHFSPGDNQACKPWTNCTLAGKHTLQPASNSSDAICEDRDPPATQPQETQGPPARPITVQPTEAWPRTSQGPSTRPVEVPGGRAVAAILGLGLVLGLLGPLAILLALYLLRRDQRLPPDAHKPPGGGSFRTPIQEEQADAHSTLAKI


Key:
Full-length Cyno OX40 = molecular target: T1, Full-length Cyno OX40; assay: flow cytometry on CHOK1SV cells transfected with cynomolgus OX40, goat anti-human Fc secondary antibody, MFI (Mean)
Protocol: Serial dilutions of ADAPTIR™ constructs were incubated with transfected target cells and subsequently labelled with a fluorescently-conjugated goat-a-human Fc secondary antibody. […] (See Example 25.)

Cyno OX40-AFH = molecular target: T2, Cyno OX40-AFH; assay: SPR (Biacore 8K), construct captured, monovalent ECD
[1] = molecular target: T3, Fc gamma receptor RIIA R167; assay: SPR, construct immobilized, receptor injected at 2 uM
Protocol: (§1) Fcγ receptor binding to bispecific proteins was measured by Surface Plasmon Resonance on a Biacore 8K instrument at room temperature. Bispecific proteins with modified Fc regions to reduce binding to Fcγ receptors were directly immobilized on the surface of a CM5 sensor chip to a surface density of 4000 RU. A bispecific ADAPTIR™ protein with a wild type Fc was similarly immobilized to the surface as a positive control and used as a comparator to evaluate the reduction in binding resulting from changes incorporated into the Fc region amino acid sequence. Fcγ receptors (purchased from R&D Systems) were diluted to either 100 nM (FcγRI) or 2 μM (all other Fcγ receptors) in HBS-EP+ buffer before injecting over the surface of the prepared sensor chip at 30 μL/min for 60 seconds. Maximum RU values during association phase of each injection were used to compare the extent of binding of the modified Fc to wild type value and are reported in Table 17 below.

Fc gamma receptor RIIB/C = molecular target: T4, Fc gamma receptor RIIB/C; assay: as above
Protocol: as §1

[2] = molecular target: T5, Fc gamma receptor RIIA H167; assay: as above
Protocol: as §1

Full-length Human 4-1BB = Full-length Human 4-1BB (human, UniProt Q07011 24-255); assay: cell-based or functional assay
Full-length Human OX40 = molecular target: T6, Full-length Human OX40; assay: cell-based or functional assay
Wherever 4-1BB Reporter Assay Max induction is given: unit not given here.
Wherever OX40 Reporter Assay Max induction is given: unit not given here.

Sequence of Full-length Human 4-1BB (Q07011 24-255): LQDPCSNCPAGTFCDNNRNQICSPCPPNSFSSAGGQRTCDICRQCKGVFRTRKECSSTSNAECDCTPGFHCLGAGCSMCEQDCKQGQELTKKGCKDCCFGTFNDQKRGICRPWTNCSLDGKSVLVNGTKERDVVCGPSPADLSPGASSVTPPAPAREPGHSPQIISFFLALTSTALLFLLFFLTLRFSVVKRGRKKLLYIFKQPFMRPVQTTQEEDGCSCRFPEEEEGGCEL

| EC50 (read off the curve) (Full-length Cyno OX40) [pM] | Kd (Cyno OX40-AFH) [pM] | koff (Cyno OX40-AFH) [s⁻¹] | kon (Cyno OX40-AFH) [M⁻¹ s⁻¹] | Max RU value during association [1] [RU] | Max RU value during association (Fc gamma receptor RIIB/C) [RU] | Max RU value during association [2] [RU] | 4-1BB Reporter Assay EC50 (Full-length Human 4-1BB) [pM] | 4-1BB Reporter Assay Max induction (Full-length Human 4-1BB) | OX40 Reporter Assay EC50 (Full-length Human OX40) [pM] | OX40 Reporter Assay Max induction (Full-length Human OX40) | Binder |
| --- | --- | --- | --- | --- | --- | --- | --- | --- | --- | --- | --- |
| 1000 to 2000 | < 1000 | 0.00029 | 1.1e+06 | 86 | 20 | 13 | 19 | 1.43e+06 | 17 | 6.09e+06 | FXX01111 (bispecific antibody, ADAPTIR anti-4-1BB x anti-OX40, pI variant; PAA (del) Fc) EVQLVQSGAEVKKPGASVKVSCKASGYTFTSYWMNWVRQAPGQGLEWMGNIYPSGGSTNYAQKFQGRVTMTVDTSTSTVYMELSSLRSEDTAVYYCASFSDGYYAYAMDYWGQGTLVTVSSGGGGSGGGGSGGGGSGGGGSEIVMTQSPATLSLSPGERATLSCRASQSVSSYLNWYQQKPGQAPRLLIYYASRRHTGIPARFSGSGSGTDFTLTISSLQPEDFAVYYCQQGYNLPYTFGQGTKVEIKEPKSSDKTHTCPPCPAPPAAAPSVFLFPPKPKDTLMISRTPEVTCVVVDVSHEDPEVKFNWYVDGVEVHNAKTKPREEQYNSTYRVVSVLTVLHQDWLNGKEYKCAVSNKALPAPIEKTISKAKGQPREPQVYTLPPSRDELTKNQVSLTCLVKGFYPSDIAVEWESNGQPENNYKTTPPVLDSDGSFFLYSKLTVDKSRWQQGNVFSCSVMHEALHNHYTQKSLSLSPGGGGSPSSYVLTQPPSVSVAPGQTARITCGGNNIGSKSVNWFQQKPGQAPVLVVYDDSGRPSGVPNRFSGSTSGNTATLTISRVEAGDEADYYCQVWDSSSDHVVFGGGTKLTVLGGGGSGGGGSGGGGSGGGGSQVQLVESGGGVVQPGRSLRLSCAASGFTLSYYGMHWVRQAPGKGLEWVAAISHDGSDKYYADSVKGRFTISRDNSKNTLYLQMNSLRAEDTAVYYCSNDQFDPWGQGTLVTVSSR |
| 1000 to 2000 | 200 | 0.00023 | 1e+06 | 103 | 22 | 14 | 11 | 1.37e+06 | 12 | 6.07e+06 | FXX01119 (bispecific antibody, ADAPTIR anti-4-1BB x anti-OX40, pI variant; PAA (del) Fc) EVQLVQSGAEVKKPGASVKVSCKASGYTFTSYWMNWVRQAPGQGLEWMGNIYPSGGSTNYAQKFQGRVTMTVDTSTSTVYMELSSLRSEDTAVYYCASFSDGYYAYAMDYWGQGTLVTVSSGGGGSGGGGSGGGGSGGGGSEIVMTQSPATLSLSPGERATLSCRASQSVSSYLNWYQQKPGQAPRLLIYYASRRHTGIPARFSGSGSGTDFTLTISSLQPEDFAVYYCQQGYNLPYTFGQGTKVEIKEPKSSDKTHTCPPCPAPPAAAPSVFLFPPKPKDTLMISRTPEVTCVVVDVSHEDPEVKFNWYVDGVEVHNAKTKPREEQYNSTYRVVSVLTVLHQDWLNGKEYKCAVSNKALPAPIEKTISKAKGQPREPQVYTLPPSRDELTKNQVSLTCLVKGFYPSDIAVEWESNGQPENNYKTTPPVLDSDGSFFLYSKLTVDKSRWQQGNVFSCSVMHEALHNHYTQKSLSLSPGGGGSPSSYVLTQPPSVSVAPGKTARITCGGNNIGSKSVNWFQQKPGQAPVLVVYDDSGRPSGVPNRFSGSTSGNTATLTISRVEAGDEADYYCQVWDSSSDHVVFGGGTKLTVLGGGGSGGGGSGGGGSGGGGSQVQLVESGGGVVQPGRSLRLSCAASGFTLSYYGMHWVRQAPGKGLEWVAAISHDGSDKYYADSVKGRFTISRDNSKNRLYLQMNSLRAEDTAVYYCSNDQFDPWGQGTLVTVSSR |
| 1000 to 2000 | < 1000 | 0.00021 | 1.1e+06 | 89 | 19 | 12 | 18 | 1.36e+06 | 19 | 6.29e+06 | FXX01115 (bispecific antibody, ADAPTIR anti-4-1BB x anti-OX40, pI variant; PAA (del) Fc) EVQLVQSGAEVKKPGASVKVSCKASGYTFTSYWMNWVRQAPGQGLEWMGNIYPSGGSTNYAQKFQGRVTMTVDTSTSTVYMELSSLRSEDTAVYYCASFSDGYYAYAMDYWGQGTLVTVSSGGGGSGGGGSGGGGSGGGGSEIVMTQSPATLSLSPGERATLSCRASQSVSSYLNWYQQKPGQAPRLLIYYASRRHTGIPARFSGSGSGTDFTLTISSLQPEDFAVYYCQQGYNLPYTFGQGTKVEIKEPKSSDKTHTCPPCPAPPAAAPSVFLFPPKPKDTLMISRTPEVTCVVVDVSHEDPEVKFNWYVDGVEVHNAKTKPREEQYNSTYRVVSVLTVLHQDWLNGKEYKCAVSNKALPAPIEKTISKAKGQPREPQVYTLPPSRDELTKNQVSLTCLVKGFYPSDIAVEWESNGQPENNYKTTPPVLDSDGSFFLYSKLTVDKSRWQQGNVFSCSVMHEALHNHYTQKSLSLSPGGGGSPSSYVLTQPPSVSVAPGQTARITCGGNNIGSKSVNWFQQKPGQAPVLVVYDDSGRPSGVPNRFSGSTSGNTATLTISRVEAGDEADYYCQVWDSSSDHVVFGGGTKLTVLGGGGSGGGGSGGGGSGGGGSQVQLVESGGGVVQPGRSLRLSCAASGFTLSYYGMHWVRQAPGKGLEWVAAISHDGSDKYYADSVKGRFTISRDNSKNRLYLQMNSLRAEDTAVYYCSNDQFDPWGQGTLVTVSSR |
